Test results taken from PMC6555819, “Comprehensive study of nuclear receptor DNA binding provides a revised framework for understanding receptor specificity”.

B1: NRC3_wobSeed2_DR0_C19A_o1 (dsDNA)
DNA 1: GCCCTAGTTGGTCAAGGTAACACACGCTATAGGTACGCGATTGACAGCGTAGAATGAAGG
DNA 2: CCTTCATTCTACGCTGTCAATCGCGTACCTATAGCGTGTGTTACCTTGACCAACTAGGGC
B2: NRC3_wobSeed104_DR4_G7A_o1 (dsDNA)
DNA 1: GCTCTTATAGATCAATAGAGGTTAAGAAAGTGCGCTGCGATTGACAGCGTAGAATGAAGG
DNA 2: CCTTCATTCTACGCTGTCAATCGCAGCGCACTTTCTTAACCTCTATTGATCTATAAGAGC
B3: NRC3_wobSeed3_DR0_A9G_o1 (dsDNA)
DNA 1: GCGCTCGGGGGACAAGGTCAGAGCTTTGTCCGTAGAGCGATTGACAGCGTAGAATGAAGG
DNA 2: CCTTCATTCTACGCTGTCAATCGCTCTACGGACAAAGCTCTGACCTTGTCCCCCGAGCGC
B4: NRC3_wobSeed66_DR2_A14G_o1 (dsDNA)
DNA 1: GCAATACAGGGTCGCTAGGCCAGAGTAGGTACGAATGCGATTGACAGCGTAGAATGAAGG
DNA 2: CCTTCATTCTACGCTGTCAATCGCATTCGTACCTACTCTGGCCTAGCGACCCTGTATTGC
B5: NRC3_wobSeed130_DR5_G16C_o1 (dsDNA)
DNA 1: GCCTCGAAAGGTCGTCCTCAGGTGAGTATACCAAACGCGATTGACAGCGTAGAATGAAGG
DNA 2: CCTTCATTCTACGCTGTCAATCGCGTTTGGTATACTCACCTGAGGACGACCTTTCGAGGC
B6: NRC3_wobSeed130_DR5_A30G_o1 (dsDNA)
DNA 1: GCCTCGAAAGGTCGTGCTCAGGTGAGTATGCCAAACGCGATTGACAGCGTAGAATGAAGG
DNA 2: CCTTCATTCTACGCTGTCAATCGCGTTTGGCATACTCACCTGAGCACGACCTTTCGAGGC
B7: NRC3_wobSeed120_DR4_A14C_o1 (dsDNA)
DNA 1: GCCCGAGTAGGTTCCGAGGGGGCATTCAGTGCGAATGCGATTGACAGCGTAGAATGAAGG
DNA 2: CCTTCATTCTACGCTGTCAATCGCATTCGCACTGAATGCCCCCTCGGAACCTACTCGGGC
B8: NRC3_wobSeed120_DR4_G10A_o1 (dsDNA)
DNA 1: GCCCGAGTAAGTTACGAGGGGGCATTCAGTGCGAATGCGATTGACAGCGTAGAATGAAGG
DNA 2: CCTTCATTCTACGCTGTCAATCGCATTCGCACTGAATGCCCCCTCGTAACTTACTCGGGC
B9: NRC3_wobSeed117_DR4_A9C_o1 (dsDNA)
DNA 1: GCCGTCAACGTTCAACTAAGGTAACGTAAAGCACGCGCGATTGACAGCGTAGAATGAAGG
DNA 2: CCTTCATTCTACGCTGTCAATCGCGCGTGCTTTACGTTACCTTAGTTGAACGTTGACGGC
B10: NRC3_wobSeed137_DR5_A29T_o1 (dsDNA)
DNA 1: GCATATGTAGGTTACATCCGGGTCATTCTGGCTATGGCGATTGACAGCGTAGAATGAAGG
DNA 2: CCTTCATTCTACGCTGTCAATCGCCATAGCCAGAATGACCCGGATGTAACCTACATATGC
B11: NRC3_wobSeed137_DR5_G21A_o1 (dsDNA)
DNA 1: GCATATGTAGGTTACATCCGAGTCATTCAGGCTATGGCGATTGACAGCGTAGAATGAAGG
DNA 2: CCTTCATTCTACGCTGTCAATCGCCATAGCCTGAATGACTCGGATGTAACCTACATATGC
B12: NRC3_wobSeed99_DR4_C23G_o1 (dsDNA)
DNA 1: GCTCTCGGAGGACACGAAAGGTGAGAGCTCGACATCGCGATTGACAGCGTAGAATGAAGG
DNA 2: CCTTCATTCTACGCTGTCAATCGCGATGTCGAGCTCTCACCTTTCGTGTCCTCCGAGAGC
B13: NRC3_wobSeed34_DR1_A24C_o1 (dsDNA)
DNA 1: GCATCGAAAGGTCGAAGGTGAGTCTACCCACCCGAAGCGATTGACAGCGTAGAATGAAGG
DNA 2: CCTTCATTCTACGCTGTCAATCGCTTCGGGTGGGTAGACTCACCTTCGACCTTTCGATGC
B14: NRC3_wobSeed34_DR1_G22C_o1 (dsDNA)
DNA 1: GCATCGAAAGGTCGAAGGTGACTATACCCACCCGAAGCGATTGACAGCGTAGAATGAAGG
DNA 2: CCTTCATTCTACGCTGTCAATCGCTTCGGGTGGGTATAGTCACCTTCGACCTTTCGATGC
B15: NRC3_wobSeed53_DR2_T12C_o1 (dsDNA)
DNA 1: GCCCTTACGGGCCACGAGGTTATAGCACGACGAGCGGCGATTGACAGCGTAGAATGAAGG
DNA 2: CCTTCATTCTACGCTGTCAATCGCCGCTCGTCGTGCTATAACCTCGTGGCCCGTAAGGGC
B16: NRC3_wobSeed138_DR5_A18T_o1 (dsDNA)
DNA 1: GCGATACAGGGTCAGCTTGAGGCCAGAGTATGGAAAGCGATTGACAGCGTAGAATGAAGG
DNA 2: CCTTCATTCTACGCTGTCAATCGCTTTCCATACTCTGGCCTCAAGCTGACCCTGTATCGC
B17: NRC3_wobSeed65_DR2_T12A_o1 (dsDNA)
DNA 1: GCATATGTAGGATATCGGGTCATTCAGTTTGCGCATGCGATTGACAGCGTAGAATGAAGG
DNA 2: CCTTCATTCTACGCTGTCAATCGCATGCGCAAACTGAATGACCCGATATCCTACATATGC
B18: NRC3_wobSeed58_DR2_T12G_o1 (dsDNA)
DNA 1: GCATCGAAAGGGCGTGAGGTGAGTATACAGAAAGGCGCGATTGACAGCGTAGAATGAAGG
DNA 2: CCTTCATTCTACGCTGTCAATCGCGCCTTTCTGTATACTCACCTCACGCCCTTTCGATGC
B19: NRC3_wobSeed72_DR2_o1 (dsDNA)
DNA 1: GCTCGAGTAGGTTACGGGGGCATTCAGGGATGAAGAGCGATTGACAGCGTAGAATGAAGG
DNA 2: CCTTCATTCTACGCTGTCAATCGCTCTTCATCCCTGAATGCCCCCGTAACCTACTCGAGC
B20: NRC3_wobSeed72_DR2_G17C_o1 (dsDNA)
DNA 1: GCTCGAGTAGGTTACGCGGGCATTCAGGGATGAAGAGCGATTGACAGCGTAGAATGAAGG
DNA 2: CCTTCATTCTACGCTGTCAATCGCTCTTCATCCCTGAATGCCCGCGTAACCTACTCGAGC
B21: NRC3_wobSeed72_DR2_T24C_o1 (dsDNA)
DNA 1: GCTCGAGTAGGTTACGGGGGCATCCAGGGATGAAGAGCGATTGACAGCGTAGAATGAAGG
DNA 2: CCTTCATTCTACGCTGTCAATCGCTCTTCATCCCTGGATGCCCCCGTAACCTACTCGAGC
B22: NRC3_wobSeed72_DR2_G16T_o1 (dsDNA)
DNA 1: GCTCGAGTAGGTTACTGGGGCATTCAGGGATGAAGAGCGATTGACAGCGTAGAATGAAGG
DNA 2: CCTTCATTCTACGCTGTCAATCGCTCTTCATCCCTGAATGCCCCAGTAACCTACTCGAGC
B23: NRC3_wobSeed23_DR0_A9G_o1 (dsDNA)
DNA 1: GCGGAACGGGGGCAAGTTGATAGCAGAGTTTGATGGGCGATTGACAGCGTAGAATGAAGG
DNA 2: CCTTCATTCTACGCTGTCAATCGCCCATCAAACTCTGCTATCAACTTGCCCCCGTTCCGC
B24: NRC3_wobSeed29_DR1_C13G_o1 (dsDNA)
DNA 1: GCGCTTACGGGTGAAAGGTTATAGCATGAATAGAATGCGATTGACAGCGTAGAATGAAGG
DNA 2: CCTTCATTCTACGCTGTCAATCGCATTCTATTCATGCTATAACCTTTCACCCGTAAGCGC

What follows are binders tested against PXR:RXRa (Homo sapiens, UniProt O75469;P19793 full;full) (assay: no ligand; PBM; 270 nM : 90 nM RXRa; PBS pH 7.4, 2% milk, 0.02% Triton X-100, 1 mM DTT, BSA, 0.4 mg/ml salmon testes DNA). Settings: tags: His kept;His cleaved; copies: 1;1; label: surface-attached array probe.
Procedure, shortened: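 Custom Agilent 4×180K protein-binding microarrays carried double-stranded probes, each with a 34-nt variable region. These regions held direct-repeat seeds, single-nucleotide variants, half-site ablations and random human genomic background sequences. Ligand-free nuclear receptor dimers were incubated on the arrays for 1 h, antibodies against each partner (one per run) detected binding, and scanned fluorescence was regression-normalized. Binding z-scores take the random background probes as reference.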

PXR:RXRa, sequence (O75469 whole entry, chain 1 of 2): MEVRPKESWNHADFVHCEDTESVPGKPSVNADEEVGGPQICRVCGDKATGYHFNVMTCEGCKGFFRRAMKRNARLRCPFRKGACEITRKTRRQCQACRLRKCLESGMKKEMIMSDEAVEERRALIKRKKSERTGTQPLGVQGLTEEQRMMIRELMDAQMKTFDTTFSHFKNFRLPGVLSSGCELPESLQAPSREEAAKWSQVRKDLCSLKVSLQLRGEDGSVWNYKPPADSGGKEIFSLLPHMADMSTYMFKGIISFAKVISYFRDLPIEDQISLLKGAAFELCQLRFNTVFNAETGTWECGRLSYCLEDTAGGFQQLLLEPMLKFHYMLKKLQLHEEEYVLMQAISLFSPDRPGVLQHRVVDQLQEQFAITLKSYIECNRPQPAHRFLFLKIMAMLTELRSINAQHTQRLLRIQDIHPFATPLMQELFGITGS
PXR:RXRa, sequence (P19793 whole entry, chain 2 of 2): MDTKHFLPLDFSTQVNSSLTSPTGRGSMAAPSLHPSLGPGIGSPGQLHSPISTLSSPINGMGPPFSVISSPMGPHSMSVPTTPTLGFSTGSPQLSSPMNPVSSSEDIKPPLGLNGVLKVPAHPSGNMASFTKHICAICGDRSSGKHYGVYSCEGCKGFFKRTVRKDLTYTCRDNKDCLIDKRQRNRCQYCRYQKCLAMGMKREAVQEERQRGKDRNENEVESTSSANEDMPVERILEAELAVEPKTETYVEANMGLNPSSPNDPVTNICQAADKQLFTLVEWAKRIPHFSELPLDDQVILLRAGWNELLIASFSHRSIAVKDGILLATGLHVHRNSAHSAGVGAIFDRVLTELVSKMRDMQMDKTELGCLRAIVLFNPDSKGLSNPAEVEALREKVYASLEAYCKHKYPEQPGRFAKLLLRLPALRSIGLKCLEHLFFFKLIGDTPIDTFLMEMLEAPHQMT

Question: Which binding signal does the source give for B1 here?
Answer: The binding signal was 0.48 PBM z-score against 500 random probes.

Question: B2 was tested. Which binding signal did it give?
Answer: The binding signal was 3.11 PBM z-score against 500 random probes.

Question: How did the binding signal turn out when B3 was run?
Answer: The binding signal was 3.22 PBM z-score against 500 random probes.

Question: How did the binding signal turn out when B4 was run?
Answer: Its binding signal is 0.28 PBM z-score against 500 random probes.

Question: B5 was tested. Which binding signal did it give?
Answer: Its binding signal is 3.28 PBM z-score against 500 random probes.

Question: For B6, which binding signal is on record?
Answer: Its binding signal is 3.26 PBM z-score against 500 random probes.

Question: How did the binding signal turn out when B7 was run?
Answer: The binding signal was 3.13 PBM z-score against 500 random probes.

Question: B8 was tested. Which binding signal did it give?
Answer: The binding signal was 3.08 PBM z-score against 500 random probes.

Question: For B9, which binding signal is on record?
Answer: The binding signal was 0.48 PBM z-score against 500 random probes.

Question: How did the binding signal turn out when B10 was run?
Answer: The binding signal was 3.07 PBM z-score against 500 random probes.

Question: How did the binding signal turn out when B11 was run?
Answer: Its binding signal is 0.38 PBM z-score against 500 random probes.

Question: B12 was tested. Which binding signal did it give?
Answer: Its binding signal is 0.4 PBM z-score against 500 random probes.

Question: With B13 as the binder, how does the binding signal read?
Answer: Its binding signal is 3.17 PBM z-score against 500 random probes.

Question: With B14 as the binder, how does the binding signal read?
Answer: Its binding signal is 3.06 PBM z-score against 500 random probes.

Question: How did the binding signal turn out when B15 was run?
Answer: The binding signal was 0.44 PBM z-score against 500 random probes.

Question: Which binding signal does the source give for B16 here?
Answer: Its binding signal is 3.18 PBM z-score against 500 random probes.

Question: For B17, which binding signal is on record?
Answer: The binding signal was 3.03 PBM z-score against 500 random probes.

Question: Which binding signal does the source give for B18 here?
Answer: The binding signal was 0.34 PBM z-score against 500 random probes.

Question: With B19 as the binder, how does the binding signal read?
Answer: The binding signal was 3.16 PBM z-score against 500 random probes.

Question: For B20, which binding signal is on record?
Answer: The binding signal was 0.24 PBM z-score against 500 random probes.

Question: Which binding signal does the source give for B21 here?
Answer: The binding signal was 3.05 PBM z-score against 500 random probes.

Question: With B22 as the binder, how does the binding signal read?
Answer: Its binding signal is 0.31 PBM z-score against 500 random probes.

Question: How did the binding signal turn out when B23 was run?
Answer: The binding signal was 3.23 PBM z-score against 500 random probes.

Question: How did the binding signal turn out when B24 was run?
Answer: The binding signal was 3.2 PBM z-score against 500 random probes.
